Results: the Human Domainome abundance scans (Beltran et al. 2025)
± gives the uncertainty stated by the source.

B1: Zinc finger MYM-type protein 6, residues 427 to 504; numbered along this chain, O95789 (parent)
chain: KLKCQHCNHLFATKPELLFYKGKMFLFCGKNCSDEYKKKNKVVAMCDYCKLQKIIKETVRFSGVDKPFCSEVCKFLSA

Variants of: B1
Assay: abundance fitness (aPCA) (normalised: wild type 0, dead -1); higher = more abundant; growth selection in yeast, the domain comes from the species named
Details: Homo sapiens

Question: For KLKCQHCNHLFATKPELLFYKGKMFLFCGKNCSDEYKKKNKVVAMCDVCKLQKIIKETVRFSGVDKPFCSEVCKFLSA [Y48V], which abundance fitness is on record?
Answer: -0.677 ± 0.12

Question: For KLKCQHCNHLFATKPELLFYKGKMFLFCGKNCSDEYKKKNKVVAMCDYCKLEKIIKETVRFSGVDKPFCSEVCKFLSA [Q52E], which abundance fitness is on record?
Answer: 0.446 ± 0.075

Question: For KLKCQHCNHLFATKPELLFYKGKMFLWCGKNCSDEYKKKNKVVAMCDYCKLQKIIKETVRFSGVDKPFCSEVCKFLSA [F27W], which abundance fitness is on record?
Answer: -0.372 ± 0.049

Question: For KLKCQHCNHLFATKPELLFYKGKMFLFCGKNCSDEYKKKNKVVAMCDYCKLQKIIKEAVRFSGVDKPFCSEVCKFLSA [T58A], which abundance fitness is on record?
Answer: -0.585 ± 0.11

Question: For KLKCQHCNHLFATKPELLFYKGKMFLFCGKNCSDEYKKKNKVVAMCDYCKLQKIIKETVRFSGVDWPFCSEVCKFLSA [K66W], which abundance fitness is on record?
Answer: -0.845 ± 0.28

Question: For KLKCQHQNHLFATKPELLFYKGKMFLFCGKNCSDEYKKKNKVVAMCDYCKLQKIIKETVRFSGVDKPFCSEVCKFLSA [C7Q], which abundance fitness is on record?
Answer: -0.887 ± 0.071

Question: With KLKCQHCNHLFATKPELLFYKGKMFLFCGKNCSDEYKKKNKVVAMCDYCKLQKIIKETVRRSGVDKPFCSEVCKFLSA [F61R] as the variant, how does the abundance fitness read?
Answer: 0.117 ± 0.074

Question: For KLKCQHCNHLFATKPELLFYKGKMFLFCGKNCSDEYKKKNKVVAMCDYCKLQKIIKETVRLSGVDKPFCSEVCKFLSA [F61L], which abundance fitness is on record?
Answer: 0.302 ± 0.09

Question: Which abundance fitness does the source give for KLKCQHCNHLFATKPELLFYKGKMFLFCGKNCSDEYKKKNKVVAMCDYCKLQKIIKETVRFSGVDKPFTSEVCKFLSA [C69T] here?
Answer: -0.902 ± 0.24

Question: For KLKCQHCNHLFATKPELLFYKGKMFLFCGKNCSDEYKKKNKVVAMCDYCKLQKIIKETVRFSGVDKPFKSEVCKFLSA [C69K], which abundance fitness is on record?
Answer: -0.637 ± 0.18

Question: With KLKCQHCNHLFATKPELLFYKGKMFLFCGKNCRDEYKKKNKVVAMCDYCKLQKIIKETVRFSGVDKPFCSEVCKFLSA [S33R] as the variant, how does the abundance fitness read?
Answer: -0.061 ± 0.03

Question: With KLKCQHCNHLFATKPELLFYKGKMFLFCGKNCLDEYKKKNKVVAMCDYCKLQKIIKETVRFSGVDKPFCSEVCKFLSA [S33L] as the variant, how does the abundance fitness read?
Answer: -0.089 ± 0.05

Question: With KLKCQHCHHLFATKPELLFYKGKMFLFCGKNCSDEYKKKNKVVAMCDYCKLQKIIKETVRFSGVDKPFCSEVCKFLSA [N8H] as the variant, how does the abundance fitness read?
Answer: -0.117 ± 0.064

Question: With KLKCRHCNHLFATKPELLFYKGKMFLFCGKNCSDEYKKKNKVVAMCDYCKLQKIIKETVRFSGVDKPFCSEVCKFLSA [Q5R] as the variant, how does the abundance fitness read?
Answer: -0.226 ± 0.03

Question: Which abundance fitness does the source give for KLKCVHCNHLFATKPELLFYKGKMFLFCGKNCSDEYKKKNKVVAMCDYCKLQKIIKETVRFSGVDKPFCSEVCKFLSA [Q5V] here?
Answer: -0.077 ± 0.029

Question: Which abundance fitness does the source give for KLKCAHCNHLFATKPELLFYKGKMFLFCGKNCSDEYKKKNKVVAMCDYCKLQKIIKETVRFSGVDKPFCSEVCKFLSA [Q5A] here?
Answer: -0.023 ± 0.031

Question: For KLKCQHCNHLFATKPELLFYKGKMFLFCGKNCSDEYKKKNKVVAMKDYCKLQKIIKETVRFSGVDKPFCSEVCKFLSA [C46K], which abundance fitness is on record?
Answer: 0.241 ± 0.13

Question: For KLKCQHCNHLFATKPELLFYKGKMFLFCGKNCSDEYKKKNKVVAMCDYCKLQKIIKETVRFSGVDKPFCSECCKFLSA [V72C], which abundance fitness is on record?
Answer: 0.553 ± 0.2

Question: With KLKCQHCNHLFATKPELLFYKGKMFLFCGKNCSDEYKKKNKVVAMCDYCKLQKIIKETVRFSGVDKPFCSEGCKFLSA [V72G] as the variant, how does the abundance fitness read?
Answer: 0.036 ± 0.073

Question: With KLKCQHCNHLFATKPELLFYKGKMFLFCGKNCSDEYKKKNKVVAMCDYCKLQKIIKETVRFSGVDKPFCSETCKFLSA [V72T] as the variant, how does the abundance fitness read?
Answer: 0.216 ± 0.1

Question: For KLKCQHCNHLLATKPELLFYKGKMFLFCGKNCSDEYKKKNKVVAMCDYCKLQKIIKETVRFSGVDKPFCSEVCKFLSA [F11L], which abundance fitness is on record?
Answer: -0.129 ± 0.035

Question: For KLKCQHCNHLDATKPELLFYKGKMFLFCGKNCSDEYKKKNKVVAMCDYCKLQKIIKETVRFSGVDKPFCSEVCKFLSA [F11D], which abundance fitness is on record?
Answer: -0.339 ± 0.057

Question: With KLKCQHCNHLFATKPELLFYKGKMFLFCGKNCSDEYKKKNKVRAMCDYCKLQKIIKETVRFSGVDKPFCSEVCKFLSA [V43R] as the variant, how does the abundance fitness read?
Answer: -0.224 ± 0.13

Question: For KLKCQHCNHLFATKPELLFYKGKMFLFCGKNCSDEYKKKNKVEAMCDYCKLQKIIKETVRFSGVDKPFCSEVCKFLSA [V43E], which abundance fitness is on record?
Answer: -0.064 ± 0.33

Question: With KLKCQHCNHLFARKPELLFYKGKMFLFCGKNCSDEYKKKNKVVAMCDYCKLQKIIKETVRFSGVDKPFCSEVCKFLSA [T13R] as the variant, how does the abundance fitness read?
Answer: -0.087 ± 0.028

Question: With KLKCQHCNHLFATKPELLFYKGKMFLFCGKNCSDELKKKNKVVAMCDYCKLQKIIKETVRFSGVDKPFCSEVCKFLSA [Y36L] as the variant, how does the abundance fitness read?
Answer: -0.181 ± 0.032

Question: With KLKCQHCNHLFATKPELLFYKGKMFLFCGKNCSDEYKKKNKVVAMCDYCKLQKIIKETVRFVGVDKPFCSEVCKFLSA [S62V] as the variant, how does the abundance fitness read?
Answer: -0.536 ± 0.13

Question: With KLKCQHCNHLFATKPELLFYKGKMFLFCGKNCSDEYKKKNKVVAMCDYCKLQKIIKETVRFQGVDKPFCSEVCKFLSA [S62Q] as the variant, how does the abundance fitness read?
Answer: 0.316 ± 0.08

Question: For KLKCQHCNHLFATKPELLFYKGKMFLFCGFNCSDEYKKKNKVVAMCDYCKLQKIIKETVRFSGVDKPFCSEVCKFLSA [K30F], which abundance fitness is on record?
Answer: -0.101 ± 0.054

Question: Which abundance fitness does the source give for KLKCQHCNHLFATKPELLFYKGKMFLFCLKNCSDEYKKKNKVVAMCDYCKLQKIIKETVRFSGVDKPFCSEVCKFLSA [G29L] here?
Answer: -0.345 ± 0.04

Question: For KLKCQHCNHLFATKPELLFYKGKMFLFCGKNCSDEYKKKNKVVAMCDYCKLQKIIKETVRFSGVDKPFCSEVCSFLSA [K74S], which abundance fitness is on record?
Answer: -0.705 ± 0.2

Question: Which abundance fitness does the source give for KLKCQHCNHLFATKPELLFYKGKMFLFCGKNCSDEYKKKNKVVAMCDYCKLQKIIKETVRFSGVDKPFCSEVCKFLSM [A78M] here?
Answer: 0.774 ± 0.16

Question: With KLKCQHCNHLFATKPELLFYKGKMFLFCGKNCSDEYKKKNKVVAMCDYCKLQKIIKETVRFSGVDKPFCSEVCKFLSD [A78D] as the variant, how does the abundance fitness read?
Answer: 0.891 ± 0.22

Question: Which abundance fitness does the source give for KLKCQHCNHLFATKPELLFYKGKMFLFCGKNCSDEYKKKNKVVAMCDYCKLQKIIKETVRFSGVDKPFCSSVCKFLSA [E71S] here?
Answer: -0.239 ± 0.14

Question: With KLKCQHCNHLFATKPELLFYKGKMFLFCGKNCSDEYKKKNKVVAMCDYCKLQKIIKETVRFSGVDKPFCSWVCKFLSA [E71W] as the variant, how does the abundance fitness read?
Answer: -0.634 ± 0.18
